This is an account of results in the supplement of paper PMC10724198.

± gives the standard deviation of the averaged measurements.
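Further: PSI is a weighted mean of sequencing reads over stability bins, variants kept only with over 10 reads, mCherry proximal and sfGFP distal, peptide attached via GGGS linker.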

The series deals with Saccharomyces cerevisiae. Put plainly: protein stability index of tFT-peptide fusion (C-terminal peptide) (PSI (0-1 scale)); higher = more stable (slower turnover). As to conditions: genetic background: wild type; temperature: 30 C.
As to SPYLGTYAPVIK, the protein stability index is 0.6804 ± 0.0032.
Regarding SPYLRISGLVFC, the protein stability index was 0.557 ± 0.045.
In turn, SQKNTQLEADGK showed a protein stability index of 0.661 ± 0.0093.
Under SQLGDGLLGEGV stands 0.697 ± 0.044; under SQPIRAMILRVP, 0.53 ± 0.00096.
Under SQQFGSILPGEL stands 0.694 ± 0.018; under SQRRGLLGRFRI, 0.695 ± 0.011.
Under SQTPPPAPSGHH stands 0.69 ± 0.099; under SRALSPRAPFGN, 0.76 ± 0.15; under SRASATTLRLAT, 0.66 ± 0.015.
In the case of SRASATYLFNLH, the protein stability index came to 0.622 ± 0.012.
SRAVTDRGWSPR displayed a protein stability index of 0.68 ± 0.028.
SRAYDKSRNISI gave a protein stability index of 0.731 ± 0.062.
SRCIIGILTRNF returned a protein stability index of 0.6836 ± 0.0035.
Under SRCPLLNGIGFR stands 0.6471 ± 0.0025; under SRCYKETGKVRE, 0.736 ± 0.0071.
Under SRDSGLIDPRFS stands 0.66973 ± 0.00044.
Under SRFIDLLFPSSP stands 0.705 ± 0.0074; under SRFILSRLPLLS, 0.595 ± 0.065; under SRFRKSSGLLLK, 0.758 ± 0.09.
In turn, SRFSPSLPPFLP yielded a protein stability index of 0.661 ± 0.055.
Under SRGNIPVCEGWS stands 0.742 ± 0.028; under SRGQSSNEVSPL, 0.637 ± 0.017.
Under SRGTKAERISIG stands 0.654 ± 0.013; under SRGWLHVVGGQV, 0.6843 ± 0.004.
Under SRKASWECVRGG stands 0.699 ± 0.015.
SRLGVIRGIGLV registered a protein stability index of 0.67 ± 0.025.
SRLPRGTYRGCP displayed a protein stability index of 0.711 ± 0.076.
Under SRLYGHDLRCRL stands 0.777 ± 0.091.
As to SRNVGRWSLRVV, the protein stability index worked out at 0.632 ± 0.024.
Under SRPLFLSLFSSV stands 0.599 ± 0.14.
In turn, SRPPPFFPPASP had a protein stability index of 0.682 ± 0.01.
Under SRRLSLSSLAFP stands 0.723 ± 0.0074; under SRRRRGRGEWFG, 0.722 ± 0.019; under SRSPRSRSRHES, 0.69769 ± 0.00032.
As to SRTNVKVRKTGV, the protein stability index came out at 0.6916 ± 0.0059.
In turn, SRVARWRSPGCC returned a protein stability index of 0.6474 ± 0.0012.
Under SRVGWSRLGPGL stands 0.68 ± 0.022; under SRYVSGGRKRKV, 0.636 ± 0.045; under SSCFVIRSLSNP, 0.72 ± 0.14.
SSCVSDKLLKNG gave a protein stability index of 0.695 ± 0.011.
In turn, SSDNKGLFDTRI yielded a protein stability index of 0.728 ± 0.024.
Under SSFFAFYSRRRF stands 0.714 ± 0.052.
Regarding SSFLAPFRFPLL, the protein stability index was 0.675 ± 0.093.
Under SSFLFVPHHYPS stands 0.706 ± 0.044; under SSFRRFVLVGFE, 0.607 ± 0.011.
SSGALLLLTGFM came in with a protein stability index of 0.681 ± 0.013.
SSGISEGFERGG returned a protein stability index of 0.581 ± 0.014.
Under SSGLALGCPLGA stands 0.682 ± 0.062.
Under SSGRHCLPCANV stands 0.64 ± 0.017; under SSLERVHVCPLE, 0.64 ± 0.079.
For the sequence SSLLFVMSYGLL, the protein stability index was 0.661 ± 0.027.
Under SSLPDSPLNRER stands 0.693 ± 0.038.
Under SSLPLPRVPPPP stands 0.717 ± 0.032; under SSLSLDERKPRT, 0.712 ± 0.23.
With SSLVAFPPLPAP, the protein stability index is 0.731 ± 0.024.
Under SSLWGAGGRGID stands 0.706 ± 0.011; under SSMCPDGGYQWV, 0.686 ± 0.0074; under SSPPPSAHPLPS, 0.6933 ± 0.0055.
Under SSPPSARSPPPP stands 0.717 ± 0.076; under SSPPSPPPLTLY, 0.687 ± 0.02; under SSPRQITTLTRL, 0.757 ± 0.037.
SSPTRARLFFPH showed a protein stability index of 0.659 ± 0.039.
The sequence SSPVDPLRPPAP displayed a protein stability index of 0.704 ± 0.013.
Under SSRRQSSRPPHS stands 0.648 ± 0.025; under SSRTPPRFYSLP, 0.708 ± 0.0074; under SSSDPYLLFCHS, 0.741 ± 0.37.
Under SSSLPPSHFYPP stands 0.718 ± 0.064; under SSSRCRVGHAGW, 0.67 ± 0.0096.
Turning to SSSTPGRATRVS, the protein stability index turned out to be 0.652 ± 0.034.
For SSSVFFFLRRFR, the protein stability index came out at 0.698 ± 0.025.
Sequence SSSVPHFIFLPR had a protein stability index of 0.656 ± 0.028.
Under SSTGRGRGCQEM stands 0.684 ± 0.0086; under SSVFPSSPAFLP, 0.691 ± 0.0099; under STCSTSQPPSPS, 0.663 ± 0.069.
Under STFRICTGVPRP stands 0.729 ± 0.0093; under STGLRISPPAYM, 0.677 ± 0.0069; under STIIYFLTYSDK, 0.634 ± 0.063.
Under STKGAIKVEECI stands 0.636 ± 0.023; under STLCVRLITSAR, 0.649 ± 0.077.
